{"source": "patent US20190175467A1", "about": "“COMPOSITION FOR THE TREATMENT OF ACNE” (ROTTAPHARM LTD., priority 2015, published 2019)", "key": {"[1]": {"system": "Staphylococcus aureus ATCC 25923", "assay": "Determination of MIC and MBC, Staphylococcus aureus", "assay_type": "cell-based", "description": "(§1) A series of test tubes was prepared containing the culture broth inoculated with the test micro-organism and the substance to be tested was introduced at decreasing scalar concentrations. […] The test tubes in which the microbial population developed were then determined by observing visually the turbidity that is indicative of growth. Test tubes in which the substance is present at a sufficient concentration to inhibit growth remain clear. When the nature itself of the sample prevents visual reading or if it is wished to determine whether the lack of development is due to a microbiostatic or microbicidal action, transfers are made to appropriate agar media for confirmation. The concentration of sample at which growth of the micro-organisms is inhibited is considered to be the Minimum Inhibitory Concentration (MIC), while that at which viable micro-organisms are no longer present is considered to be the Minimum Bactericidal Concentration (MBC) The antibacterial activity of these substances against Staphylococcus aureus acnes ATCC 25923 and Staphylococcus epidermidis ATCC 12228 was tested according to the above-described method."}, "[2]": {"system": "Staphylococcus epidermidis ATCC 12228", "assay": "Determination of MIC and MBC, Staphylococcus epidermidis", "assay_type": "cell-based", "description": "as §1"}}}
{"molecule": "Lactoferrin (protein, UniProt P02788 20-710, looked up) Lactotransferrin: GRRRSVQWCAVSQPEATKCFQWQRNMRKVRGPPVSCIKRDSPIQCIQAIAENRADAVTLDGGFIYEAGLAPYKLRPVAAEVYGTERQPRTHYYAVAVVKKGGSFQLNELQGLKSCHTGLRRTAGWNVPIGTLRPFLNWTGPPEPIEAAVARFFSASCVPGADKGQFPNLCRLCAGTGENKCAFSSQEPYFSYSGAFKCLRDGAGDVAFIRESTVFEDLSDEAERDEYELLCPDNTRKPVDKFKDCHLARVPSHAVVARSVNGKEDAIWNLLRQAQEKFGKDKSPKFQLFGSPSGQKDLLFKDSAIGFSRVPPRIDSGLYLGSGYFTAIQNLRKSEEEVAARRARVVWCAVGEQELRKCNQWSGLSEGSVTCSSASTTEDCIALVLKGEADAMSLDGGYVYTAGKCGLVPVLAENYKSQQSSDPDPNCVDRPVEGYLAVAVVRRSDTSLTWNSVKGKKSCHTAVDRTAGWNIPMGLLFNQTGSCKFDEYFSQSCAPGSDPRSNLCALCIGDEQGENKCVPNSNERYYGYTGAFRCLAENAGDVAFVKDVTVLQNTDGNNNEAWAKDLKLADFALLCLDGKRKPVTEARSCHLAMAPNHAVVSRMDKVERLKQVLLHQQAKFGRNGSDCPDKFCLFQSETKNLLFNDNTECLARLHGKTTYEKYLGPQYVAGITNLKKCSTSPLLEACEFLRK", "values": [{"measurement": "MIC", "setting": "[1]", "value": ">20", "unit": "mg/mL"}, {"measurement": "MIC", "setting": "[2]", "value": ">20", "unit": "mg/mL"}]}
